According to patent publication US12295987B2, “Method of using a GIP/GLP1 co-agonist for diabetes” (Eli Lilly and Company, priority 2018, dated 2025):
Numbered stars: 1 amine (or outer) side, 2 acyl side, 3 side chain; on linkers, the order of the positions; unused ones are H or OH. Square brackets hold non-standard residues; d marks the D form. Side chains are listed from the residue outwards. Ends that are not written are not given here. * marks the point of attachment. C20 diacid = O=C(O)CCCCCCCCCCCCCCCCCCC(=O)*; γGlu = O=C(O)[C@H](CCC(=O)[*:2])N[*:1]; AEEA = NCCOCCOCC(=O)O; Aib = CC(C)(N)C(=O)O

Target: T1, human gastric inhibitory peptide receptor (hGIPR) (Homo sapiens, UniProt P48546)
T1 construct: expressed in transfected cells; host or cells: HEK293
T1 sequence (P48546 22-466): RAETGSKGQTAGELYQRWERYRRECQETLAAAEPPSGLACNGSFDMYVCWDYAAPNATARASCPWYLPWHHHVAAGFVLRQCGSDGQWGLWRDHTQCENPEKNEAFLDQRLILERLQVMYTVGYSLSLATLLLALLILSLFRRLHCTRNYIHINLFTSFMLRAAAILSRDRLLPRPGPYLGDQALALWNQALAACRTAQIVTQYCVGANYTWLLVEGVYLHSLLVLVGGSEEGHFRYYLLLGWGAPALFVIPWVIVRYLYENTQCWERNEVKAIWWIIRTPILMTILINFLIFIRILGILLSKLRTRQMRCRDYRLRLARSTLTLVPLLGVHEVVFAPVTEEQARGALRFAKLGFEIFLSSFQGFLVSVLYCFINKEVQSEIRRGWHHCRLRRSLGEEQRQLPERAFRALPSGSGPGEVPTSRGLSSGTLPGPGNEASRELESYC
Assay: cAMP pharmacological functional assay in presence of 0.1% casein, hGIPR
Assay type: cell-based
Conditions: ratio of hGIPR to hGLP1R cAMP EC50 ratios

| Substance | [hGIPR/hGLP1R] EC50 Ratio |
| --- | --- |
| Y-Aib-EGT-αMeF-TSDYSI-αMeL-LDKK((2-[2-(2-Amino-ethoxy)-ethoxy]-acetyl)2-(γGlu)-CO—(CH2)18—CO2H)AQ-Aib-AFIEYLIEGGPSSGAPPPS-NH2 (YXEGTXTSDYSIXLDKKAQXAFIEYLIEGGPSSGAPPPS; Aib, αMeF, αMeL, lipidated Lys, C-terminal amide; (2)..(2) Xaa at position 2 is Aib; (6)..(6) Xaa at position 6 is alpha-methyl-Phe; (13)..(13) Xaa at position 13 is alpha-methyl-Leu; MOD_RES (17)..(17) Lys at position 17 is chemically modified by conjugation of the epsilon-amino group of the Lys side chain with (2-[2-(2-amino-ethoxy)-ethoxy]-acetyl)2-(gamma-Glu)-CO-(CH2)18- CO2H; (20)..(20) Xaa at position 20 is Aib; MOD_RES (39)..(39) Ser at po) [Peptide 69] | 3.21 |
| Y-Aib-EGT-αMeF-TSDYSI-αMeL-LDKK((2-[2-(2-Amino-ethoxy)-ethoxy]-acetyl)2-(γGlu)-CO—(CH2)18—CO2H)AQ-Aib-DFIEYLIEGGPSSGAPPPS-NH2 (YXEGTXTSDYSIXLDKKAQXDFIEYLIEGGPSSGAPPPS; Aib, αMeF, αMeL; acylated lysine C20 diacid; amide; (2)..(2) Xaa at position 2 is Aib; (6)..(6) Xaa at position 6 is alpha-methyl-Phe; (13)..(13) Xaa at position 13 is alpha-methyl-Leu; MOD_RES (17)..(17) Lys at position 17 is chemically modified by conjugation of the epsilon-amino group of the Lys side chain with (2-[2-(2-amino-ethoxy)-ethoxy]-acetyl)2-(gamma-Glu)-CO-(CH2)18- CO2H; (20)..(20) Xaa at position 20 is Aib; MOD_RES (39)..(39) Ser at po) [Peptide 140] | 3.24 |
| Y-Aib-EGT-αMeF-TSDYSI-αMeL-LDKK((2-[2-(2-Amino-ethoxy)-ethoxy]-acetyl)2-(γGlu)-CO—(CH2)18—CO2H)AQ-Aib-Aad-FIEYLIEGGPSSGAPPPS-NH2 (YXEGTXTSDYSIXLDKKAQXXFIEYLIEGGPSSGAPPPS; Aib, Aad, αMeF, αMeL; acylated lysine C20 diacid; amide; (2)..(2) Xaa at position 2 is Aib; (6)..(6) Xaa at position 6 is alpha-methyl-Phe; (13)..(13) Xaa at position 13 is alpha-methyl-Leu; MOD_RES (17)..(17) Lys at position 17 is chemically modified by conjugation of the epsilon-amino group of the Lys side chain with (2-[2-(2-amino-ethoxy)-ethoxy]-acetyl)2-(gamma-Glu)-CO-(CH2)18- CO2H; (20)..(20) Xaa at position 20 is Aib; (21)..(21) Xaa at position 2) [Peptide 137] | 3.58 |
| Y-Aib-EGTFTSDYSI-αMeL-LDKIAQ-Aib-AFIEYLIK((2-[2-(2-Amino-ethoxy)-ethoxy]-acetyl)2-(γGlu)-CO—(CH2)18—CO2H)GG-NH2 (YXEGTFTSDYSIXLDKIAQXAFIEYLIKGG; Aib, αMeL; K lipidated C20 diacid-γGlu-AEEA2; C-terminal amide; (2)..(2) Xaa at position 2 is Aib; (13)..(13) Xaa at position 13 is alpha-methyl-Leu; (20)..(20) Xaa at position 20 is Aib; MOD_RES (28)..(28) Lys at position 28 is chemically modified by conjugation of the epsilon-amino group of the Lys side chain with (2-[2-(2-amino-ethoxy)-ethoxy]-acetyl)2-(gamma-Glu)-CO-(CH2)18- CO2H; MOD_RES (30)..(30) Gly at position 30 is amidated) [Peptide 97] | 3.56 |
| Y-Aib-EGT-αMeF-TSDYSI-αMeL-LDKK((2-[2-(2-Amino-ethoxy)-ethoxy]-acetyl)2-(γGlu)-CO—(CH2)18—CO2H)AQ-Aib-EFI-(D-Glu)-YLIEGGPSSG-NH2 (YXEGTXTSDYSIXLDKKAQXEFIXYLIEGGPSSG; Aib, αMe, D-Glu, C20 diacid lipidation, C-amide; (2)..(2) Xaa at position 2 is Aib; (6)..(6) Xaa at position 6 is alpha-methyl-Phe; (13)..(13) Xaa at position 13 is alpha-methyl-Leu; MOD_RES (17)..(17) Lys at position 17 is chemically modified by conjugation of the epsilon-amino group of the Lys side chain with (2-[2-(2-amino-ethoxy)-ethoxy]-acetyl)2-(gamma-Glu)-CO-(CH2)18- CO2H; (20)..(20) Xaa at position 20 is Aib; (24)..(24) Xaa at position 2) [Peptide 228] | 3.51 |
| Y-Aib-EGTFTSDYSILLDKIAQ-Aib-AFK((2-[2-(2-Amino-ethoxy)-ethoxy]-acetyl)2-(γGlu)-CO—(CH2)18—CO2H)EYLIEGGPSSGAPPPS-NH2 (Y[Aib]EGTFTSDYSILLDKIAQ[Aib]AFK([AEEA-AEEA-γGlu-C20 diacid])EYLIEGGPSSGAPPPS-NH2) [Peptide 33] | 8.67 |
| Y-Aib-EGT-αMeF(2F)-TSDYSI-αMeL-LDEK((2-[2-(2-Amino-ethoxy)-ethoxy]-acetyl)2-(εK)-CO—(CH2)18—CO2H)AQ-Aib-EFI-(D-Glu)-YLIEGGPSSGAPPPS-NH2 (YXEGTXTSDYSIXLDEKAQXEFIXYLIEGGPSSGAPPPS; Aib, αMeF(2F), αMeL, D-Glu; εK-lipidated K; amide; (2)..(2) Xaa at position 2 is Aib; (6)..(6) Xaa at position 6 is alpha-methyl-Phe(2F); (13)..(13) Xaa at position 13 is alpha-methyl-Leu; MOD_RES (17)..(17) Lys at position 17 is chemically modified by conjugation of the epsilon-amino group of the Lys side chain with (2-[2-(2-amino-ethoxy)-ethoxy]-acetyl)2-(epsilon-Lys)-CO-(CH2)18- CO2H; (20)..(20) Xaa at position 20 is Aib; (24)..(24) Xaa at posi) [Peptide 216] | 3.75 |
| Y-Aib-EGT-αMeF(2F)-TSDYSI-αMeL-LDEK((2-[2-(2-Amino-ethoxy)-ethoxy]-acetyl)2-(γGlu)-CO—(CH2)18—CO2H)AQ-Aib-EFI-(D-Glu)--αMeY-LIEGGPSSGAPPPS-NH2 (YXEGTXTSDYSIXLDEKAQXEFIXXLIEGGPSSGAPPPS; Aib, αMeF(2F), αMeL, D-Glu, αMeY; lipidated K; amide; (2)..(2) Xaa at position 2 is Aib; (6)..(6) Xaa at position 6 is alpha-methyl-Phe(2F); (13)..(13) Xaa at position 13 is alpha-methyl-Leu; MOD_RES (17)..(17) Lys at position 17 is chemically modified by conjugation of the epsilon-amino group of the Lys side chain with (2-[2-(2-amino-ethoxy)-ethoxy]-acetyl)2-(gamma-Glu)-CO-(CH2)18- CO2H; (20)..(20) Xaa at position 20 is Aib; (24)..(24) Xaa at positi) [Peptide 222] | 3.77 |
| Y-Aib-EGT-αMeF-TSDYSI-αMeL-LDEK((2-[2-(2-Amino-ethoxy)-ethoxy]-acetyl)2-(γGlu)-CO—(CH2)18—CO2H)AQ-Aib-EFI-(D-Glu)-YLIEGGPSSGAPPPS-NH2 (YXEGTXTSDYSIXLDEKAQXEFIXYLIEGGPSSGAPPPS; Aib, αMeF, αMeL, D-Glu; lipidated K; amide; (2)..(2) Xaa at position 2 is Aib; (6)..(6) Xaa at position 6 is alpha-methyl-Phe; (13)..(13) Xaa at position 13 is alpha-methyl-Leu; MOD_RES (17)..(17) Lys at position 17 is chemically modified by conjugation of the epsilon-amino group of the Lys side chain with (2-[2-(2-amino-ethoxy)-ethoxy]-acetyl)2-(gamma-Glu)-CO-(CH2)18- CO2H; (20)..(20) Xaa at position 20 is Aib; (24)..(24) Xaa at position 2) [Peptide 227] | 4.42 |
